Experiments:
[1] = target: T1, mouse PMEL17 (Mus musculus, UniProt Q60696); experiment: Species cross-reactivity by FACS, 293S cells stably transfected with gD tagged PMEL17; type: binding; details: 10 μg/ml antibody
T1 construct: gD tag (N); expressed in transfected cells
T1 sequence (Q60696 24-626): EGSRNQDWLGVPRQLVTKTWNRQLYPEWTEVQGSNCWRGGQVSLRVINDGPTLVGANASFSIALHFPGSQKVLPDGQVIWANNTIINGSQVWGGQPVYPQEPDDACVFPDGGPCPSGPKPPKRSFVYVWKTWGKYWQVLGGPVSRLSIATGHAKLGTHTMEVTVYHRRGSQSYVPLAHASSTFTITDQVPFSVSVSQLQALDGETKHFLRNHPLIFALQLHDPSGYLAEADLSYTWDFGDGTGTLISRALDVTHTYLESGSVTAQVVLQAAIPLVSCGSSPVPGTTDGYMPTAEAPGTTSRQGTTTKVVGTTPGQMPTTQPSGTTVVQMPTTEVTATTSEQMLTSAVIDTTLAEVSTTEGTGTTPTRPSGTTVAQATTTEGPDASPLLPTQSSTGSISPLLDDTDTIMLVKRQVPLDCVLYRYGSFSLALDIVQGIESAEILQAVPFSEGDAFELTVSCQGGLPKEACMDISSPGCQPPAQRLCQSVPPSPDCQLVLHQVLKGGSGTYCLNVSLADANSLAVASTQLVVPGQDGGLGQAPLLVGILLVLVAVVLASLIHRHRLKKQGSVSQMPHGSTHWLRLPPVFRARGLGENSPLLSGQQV
Protocol: Antibody 17A9 was tested to determine if it cross-reacts with PMEL17 from species other than human. […] All of the sequences include the signal sequence except for the cynomolgus monkey PMEL17. Residues that are identical among all four species are indicated by asterisks (*). In the region where the rat sequence has a deletion, residues that are identical among the remaining three species are indicated by a plus (+). Binding to each species of PMEL17 was determined by FACS analysis using 293S cells stably transfected with an N-terminal gD tagged PMEL17 (human, cynomolgus monkey, rat, or mouse PMEL17); stained with 10 μg/ml 17A9 antibody; and detected with R-Phycoerythrin conjugated goat anti-mouse antibody.

[2] = tested on: normal human melanocytes; experiment: Toxicity of anti-PMEL17 ADC in normal melanocytes (CellTiter-GloII, five days); type: cell-based; details: versus SK-MEL-5 and SK-MEL-23, five days
Protocol: Finally, SK-MEL-5 and SK-MEL-23 melanoma cells, or normal human melanocytes, were incubated with serial dilutions of the 17A9 ADC and five days later cell numbers were determined using CellTiter-GloII.

[3] = tested on: 928mel cells; experiment: Live cell staining and FACS with directly labeled antibodies; type: cell-based
Excerpt: The predominance of the N-terminal epitope at the cell surface relative to the cytoplasmic epitope is consistent with stronger FACS signals observed with 17A9 over 77E6. Nevertheless, it appears that some portion of the cytoplasmic region is present at the cell surface to account for the FACS signals observed with 77E6. To address this, live cells were reacted with the 77E6 and 17A9 antibodies that were directly labeled with Alexa Fluors 555 and 488, respectively. […] The binding of the individual antibodies was unaffected by the presence of the other antibody. […] Further, although 17A9 stained all cells uniformly and consistently, 77E6 staining was variable from cell to cell and the overall degree of staining varied across preparations. […] Overall, the uniform and intense reactivity of 17A9 on melanoma cells makes this antibody a good candidate for drug conjugation.

[4] = tested on: human PMEL17; experiment: Monoclonal antibody epitope mapping with PMEL17 deletion mutants (immunoblot, FACS); type: binding; details: N-terminal deletions by immunoblot, C-terminal deletions in 293 cells by FACS
Protocol: All the constructs for epitope mapping were made by PCR amplification of each fragment and subcloning into either pRKtkneo vector with an N-terminal gD tag, or pRKtkneo vector with an N-terminal gD tag and a C-terminal GPI anchor. Transfections were performed using FuGene 6 (Roche Applied Science), and empty vector was used as control. Full-length human PMEL17 was subcloned into pRKtkneo vector with an N-terminal gD tag.
A signal sequence and a gD epitope tag were fused to the N-terminal sequence of a series of deletion mutants, which were then expressed in mammalian cells and the lysates analyzed by immuoblotting for reactivity with 17A9 or 77E6. The N-terminal deletions tested included Δ100, Δ255, Δ292, Δ315, Δ444, Δ515, and Δ567.
In addition, C-terminal deletions with an N-terminal gD tag and a C-terminal GPI anchor were transiently transfected into 293 cells and analyzed for antibody binding by FACS. The C-terminal deletions tested included PMEL1725-125, PMEL1725-105, PMEL1725-85, PMEL1725-65, and PMEL1725-45. Finally, a PMEL17 fragment comprising the region from amino acid 515 through the transmembrane domain, but lacking the cytoplasmic region (“Δ515-C”) and a PMEL17 fragment comprising just the cytoplasmic domain with an N-terminal gD tag and a C-terminal GPI anchor were analyzed by immuoblotting for reactivity with 77E6.

B1: 17A9 (antibody, listed as Mus musculus, V domains shown)
VH: EVQLQQSGPELVKPGASMKISCKSSGYSFTRYTMNWVKQSHGKNLEWIGVINPYNGGTVYNQKFKGKATLTVDKSSSTAYMELLSLTSEDSAVYYCARTDYDGYAMDYWGQGTSVTVSS
VL: DVQITQSPSYLAASPGETITINCRATKSISKYLAWYQEQPGKTNNLLIYSGSTLQSGIPSRFSGSGSGTDFTLTISSLEPEDFAMYYCQQHNEYPYTFGSGTKLEIK
binding to mouse PMEL17 by FACS [1]: bind | IC50 on normal melanocytes relative to melanoma cell lines [2]: ~100 fold | binding in the presence of the other labeled antibody (competition) ([3]; 77E6 and 17A9 alone or both together, FACS): unaffected | cell surface staining of live-labeled cells ([3]; Alexa Fluor labeled antibodies): uniform cell surface staining | binding to PMEL17 deletion mutants [4]: bound only to PMEL1725-125 | binding to PMEL17 deletion mutants ([4]; listed as 17A6): bound only to full-length PMEL17

From US10196454B2, “Anti-PMEL17 antibodies and immunoconjugates” (GENENTECH, INC., priority 2012, dated 2019)
